Data published in PMC7807878, “Development of an engineered peptide antagonist against periostin to overcome doxorubicin resistance in breast cancer” (BMC Cancer, 2021).

Target: T1, recombinant PN (rPN) (UniProt Q15063 22-836)
T1 construct: periostin (PN), recombinant, bought; also called periostin; source: bought: BioVendor (RD172045025)
T1 sequence (looked up): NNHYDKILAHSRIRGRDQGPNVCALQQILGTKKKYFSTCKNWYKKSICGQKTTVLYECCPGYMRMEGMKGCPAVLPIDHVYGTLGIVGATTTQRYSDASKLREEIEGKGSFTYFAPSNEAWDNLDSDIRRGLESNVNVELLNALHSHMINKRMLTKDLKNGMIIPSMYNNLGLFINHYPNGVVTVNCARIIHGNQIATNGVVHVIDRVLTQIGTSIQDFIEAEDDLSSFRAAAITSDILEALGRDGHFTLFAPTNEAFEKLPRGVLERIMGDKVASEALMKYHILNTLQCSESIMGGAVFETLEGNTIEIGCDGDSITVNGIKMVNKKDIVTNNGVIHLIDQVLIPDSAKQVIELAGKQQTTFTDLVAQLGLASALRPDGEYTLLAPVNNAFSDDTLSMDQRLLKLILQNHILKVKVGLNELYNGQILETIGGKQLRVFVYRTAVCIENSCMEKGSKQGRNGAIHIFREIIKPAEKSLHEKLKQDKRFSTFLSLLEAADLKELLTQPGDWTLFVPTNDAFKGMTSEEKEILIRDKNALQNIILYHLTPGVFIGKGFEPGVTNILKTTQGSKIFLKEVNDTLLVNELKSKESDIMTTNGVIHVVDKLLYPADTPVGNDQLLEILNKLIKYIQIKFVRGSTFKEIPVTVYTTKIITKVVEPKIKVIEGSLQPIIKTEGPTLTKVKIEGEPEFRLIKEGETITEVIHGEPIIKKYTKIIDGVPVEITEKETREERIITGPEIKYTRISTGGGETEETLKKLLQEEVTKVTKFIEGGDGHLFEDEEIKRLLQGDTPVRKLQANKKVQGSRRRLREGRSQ
Assay: ITC; MicroCal PEAQ-ITC; 700 nM rPN (or BSA) and 100 nM plain anti-PN peptide in 50 mM Tris, 150 mM NaCl, pH 7.5, in syringe and cell compartments
Settings: both partners purified

B1: plain anti-PN peptide (peptide)
peptide: TFATHGKHWAAP
notes: The methods mention C-terminal amidation after describing the FITC-labelled form; it is not clear whether the plain peptide is amidated too; also called candidate anti-PN peptide; source: synthetic peptide (ordered from Syn Peptide company, Shanghai)
B1 was tested, and the Kd was 1 pM.
